Laboratory results reported in patent US20260250420A1 (SICHUAN KELUN BIOTECH BIOPHARMACEUTICAL, published 2026).

T1: human PTK7 protein (extracellular sequence of human PTK7 with C-terminal 6×His tag) (human, UniProt Q13308 31-704)
T1 construct: extracellular domain; Expressed transiently in HEK293 cells; also called human PTK7-His; human PTK7-His protein
T1 sequence: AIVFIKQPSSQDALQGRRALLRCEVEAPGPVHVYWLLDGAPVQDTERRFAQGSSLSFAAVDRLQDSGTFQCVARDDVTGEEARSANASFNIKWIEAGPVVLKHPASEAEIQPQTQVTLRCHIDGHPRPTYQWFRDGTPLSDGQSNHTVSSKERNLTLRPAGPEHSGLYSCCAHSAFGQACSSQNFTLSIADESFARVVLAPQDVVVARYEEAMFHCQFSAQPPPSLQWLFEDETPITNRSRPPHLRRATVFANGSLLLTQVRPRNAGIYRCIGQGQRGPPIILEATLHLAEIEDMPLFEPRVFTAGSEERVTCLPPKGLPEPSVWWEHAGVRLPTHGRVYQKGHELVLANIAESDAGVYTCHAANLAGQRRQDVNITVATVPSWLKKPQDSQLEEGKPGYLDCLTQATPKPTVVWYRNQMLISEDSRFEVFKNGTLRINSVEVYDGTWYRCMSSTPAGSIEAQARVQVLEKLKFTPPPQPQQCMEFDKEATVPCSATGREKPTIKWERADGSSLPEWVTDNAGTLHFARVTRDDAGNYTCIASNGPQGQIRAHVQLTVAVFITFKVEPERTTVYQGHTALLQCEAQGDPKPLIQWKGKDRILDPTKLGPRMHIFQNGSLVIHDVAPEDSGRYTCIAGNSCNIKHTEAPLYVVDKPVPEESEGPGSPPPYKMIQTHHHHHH

T2: human PTK7 on cells (tumor cells endogenously expressing PTK7); CHO-hPTK7, CHO-S-hPTK7 and 293T-hPTK7 … (human, UniProt Q13308 31-1070)
T2 sequence (looked up): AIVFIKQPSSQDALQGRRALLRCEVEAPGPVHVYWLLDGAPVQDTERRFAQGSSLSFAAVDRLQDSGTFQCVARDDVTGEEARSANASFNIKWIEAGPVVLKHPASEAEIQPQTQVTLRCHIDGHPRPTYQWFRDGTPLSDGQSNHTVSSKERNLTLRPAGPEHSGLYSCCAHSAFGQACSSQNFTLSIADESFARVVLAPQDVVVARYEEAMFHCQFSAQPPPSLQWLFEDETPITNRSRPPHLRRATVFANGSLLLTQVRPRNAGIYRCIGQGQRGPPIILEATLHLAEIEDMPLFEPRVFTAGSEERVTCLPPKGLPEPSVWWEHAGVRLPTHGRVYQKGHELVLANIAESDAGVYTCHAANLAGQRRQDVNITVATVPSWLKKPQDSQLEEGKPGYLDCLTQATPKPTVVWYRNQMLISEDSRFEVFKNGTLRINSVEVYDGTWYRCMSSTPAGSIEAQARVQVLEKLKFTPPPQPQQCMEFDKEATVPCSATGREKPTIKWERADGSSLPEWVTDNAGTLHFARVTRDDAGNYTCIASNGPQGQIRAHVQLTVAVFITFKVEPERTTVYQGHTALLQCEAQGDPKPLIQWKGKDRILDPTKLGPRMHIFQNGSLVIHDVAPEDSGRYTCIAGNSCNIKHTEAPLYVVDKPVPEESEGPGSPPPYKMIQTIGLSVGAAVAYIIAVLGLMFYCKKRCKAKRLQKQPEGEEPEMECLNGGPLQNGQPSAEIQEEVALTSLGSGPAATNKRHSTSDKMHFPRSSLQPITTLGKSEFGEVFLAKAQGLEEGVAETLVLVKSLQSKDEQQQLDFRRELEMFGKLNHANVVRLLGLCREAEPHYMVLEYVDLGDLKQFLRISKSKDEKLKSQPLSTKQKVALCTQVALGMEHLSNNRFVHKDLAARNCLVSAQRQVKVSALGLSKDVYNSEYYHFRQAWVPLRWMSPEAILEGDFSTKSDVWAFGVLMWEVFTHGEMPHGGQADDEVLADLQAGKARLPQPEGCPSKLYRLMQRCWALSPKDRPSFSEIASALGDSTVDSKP

B1: 101A6HZ (anti-human PTK7 humanized antibody) (antibody, human IgG1, kappa)
heavy: not shown
light: DIVMTQSPDSLAVSLGERATINCKASQDVGSAVIWYQQKPGQSPKLLIYWASTRHTGVPDRFSGSGSGTDFTLTISSLQAEDVAVYYCQQYSSYPLTFGQGTKLEIKRTVAAPSVFIFPPSDEQLKSGTASVVCLLNNFYPREAKVQWKVDNALQSGNSQESVTEQDSKDSTYSLSSTLTLSKADYEKHKVYACEVTHQGLSSPVTKSFNRGEC
B2: Hu24 (PTK7 control antibody, taken from Hu24 in the Patent CN201580030255) (antibody)
chain 1: QVQLVQSGPEVKKPGASVKVSCKASGYTFTDYAVHWVRQAPGKRLEWIGVISTYNDYTYNNQDFKGRVTMTRDTSASTAYMELSRLRSEDTAVYYCARGNSYFYALDYWGQGTSVTVSS
chain 2: EIVLTQSPATLSLSPGERATLSCRASESVDSYGKSFMHWYQQKPGQAPRLLIYRASNLESGIPARFSGSGSGTDFTLTISSLEPEDFAVYYCQQSNEDPWTFGGGTKLEIK
B3: 64A10HZ (anti-human PTK7 humanized antibody) (antibody, human IgG1, kappa, V domains shown)
VH: QVQLQESGPGLVKPSETLSLTCTVSGFSLTSYGVYWVRQPPGKGPEWLGVIWTSGNTNYNPSLKSRLTISKDNSKNQVSLKLSSVTAADTAVYYCVKHDGGNYVGVMNYWGQGTLVTVSS
VL: EIVMTQSPDFQSVTPKEKVTITCRASQSISDYLHWYQQKPDQSPKLLIKYASQSISGVPSRFSGSGSGSDFTLTINSLEAEDAATYYCQNGHSFPPTFGQGTKLEIKR
notes: Human IgG1 heavy chain constant region and human Kappa light chain constant region; expressed in CHO-S cells

Molecular target: T1, human PTK7 protein (extracellular …)
Test: BLI (ForteBio), antibody on Protein A sensor, human PTK7-His 200-3.125 nM, 1:1 global fit
Text: The dynamic affinity of the control Hu24 and candidate antibodies 64A10HZ, 101A6HZ, 4E12HZ and 19C2HZ with human PTK7-His was detected by using ForteBio (Pall life sciences).

Binder | Kd [nM] | koff [s⁻¹] | kon [M⁻¹ s⁻¹]
B1 | 42.4 | 0.00566 | 134000
B2 | 4.96 | 0.00105 | 211000
B3 | 10.9 | 0.00278 | 255000

Molecular target: T2, human PTK7 on cells (tumor cells …)
Test: cell-based or functional assay

Binder | FADU cell endocytosis activity, EC50 [µg/mL]
B1 | 0.115
B2 | 0.18
B3 | 0.147

Molecular target: T2, human PTK7 on cells (tumor cells …)
Test: flow cytometry on H1299 cells
Text: A flow cytometer (Beckman, Cytoflex) was used for detecting the affinity of the anti-human PTK7 chimeric and humanized antibodies with human non-small cell lung cancer cells H1299, human lung adenocarcinoma cells H1975, human breast cancer cells T47D, human ovarian cancer cells OVCAR-3 (all purchased from NANJING COBIOER BIOSCIENCES CO., LTD) and CHO-hPTK7 overexpression cells.
The adherent cells were digested by using a pancreatin (Gibco) solution; a proper amount of cells were counted and taken, washed twice by using 1×PBS, and re-suspended in a 1% BSA solution; and then the cells were transferred into a 96-well deep plate at a density of 50 μl/well; a candidate antibody was diluted by using 1% BSA, then 50 μl of diluted antibody was added into the deep plate containing the cells, and incubated for 40 min at 4° C.; the cells were washed twice by using PBS, then 50 μl of diluted secondary antibody was added into each well, uniformly mixed, and incubated for 30 min at 4° C.; and the cells were washed twice by using PBS, then re-suspended in 400 μl of PBS, and subjected to examination by flow cytometer.

Binder | EC50 [µg/mL]
B1 | 0.0843
B2 | 0.0649
B3 | 0.0475
